Measurements as given in patent US20050256058.

How the values were obtained:
[1] = test system: T1, Cbz-Ala-Ala-AAsn-CH═CH-CON(Bzl)2
T1 sequence: AAN

[2] = test system: T2, PhPr-Leu-AOrn-CH═CH-COOEt
T2 sequence: LX

[3] = test system: T3, Cbz-Ala-Ala-AAsn-CH═CH-CO-indoline
T3 sequence: AAN

[4] = test system: T4, Cbz-Ala-Ala-AAsn-CH═CH-CONHCH2CH2Ph
T4 sequence: AAN

[5] = test system: T5, Cbz-Ala-Ala-AAsn-CH═CH-CON(CH3)Bzl
T5 sequence: AAN

[6] = test system: T6, PhPr-Leu-ALys-CH═CH-COOEt
T6 sequence: LK

[7] = test system: T7, Cbz-Ala-Ala-AAsn-CH═CH-COOEt
T7 sequence: AAN

## Cathepsin B
[1]
  kobs/[I]: NI
[2]
  kobs/[I]: 3 M⁻¹ s⁻¹
[3]
  kobs/[I]: NI
[4]
  kobs/[I]: NI
[5]
  kobs/[I]: NI
[6]
  kobs/[I]: 9 M⁻¹ s⁻¹
[7]
  kobs/[I]: 1 M⁻¹ s⁻¹

## Gingipain K
[1]
  kobs/[I]: 2 M⁻¹ s⁻¹
[3]
  kobs/[I]: 1 M⁻¹ s⁻¹
[4]
  kobs/[I]: NI
[5]
  kobs/[I]: 1 M⁻¹ s⁻¹
[7]
  kobs/[I]: 6 M⁻¹ s⁻¹

## Trypsin
[2]
  kobs/[I]: NI
[6]
  kobs/[I]: 17 M⁻¹ s⁻¹
